Source: patent US20250109212A1 (BIOSION, published 2025)

T1: cynomolgus CD40-his protein (Biosion in house made) (cynomolgus, UniProt P25942 21-191 (human entry), limits assumed)
T1 construct: also called Cyno CD40-his
T1 chain: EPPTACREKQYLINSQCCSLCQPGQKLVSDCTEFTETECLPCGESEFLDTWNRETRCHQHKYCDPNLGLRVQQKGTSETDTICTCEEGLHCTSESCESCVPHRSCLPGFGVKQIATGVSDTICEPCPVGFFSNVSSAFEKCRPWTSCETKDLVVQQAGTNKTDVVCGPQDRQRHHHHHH


Experiments:
[1] = target: human CD40-Fc protein (Cat #: CD0-H5253, ACRO Biosystems) (human, UniProt P25942 21-193); assay: dual-binding ELISA: human CD40-Fc coated, binder titrated, detected with human CD47-his and anti-His-HRP, OD450
Procedure: The binding activity of the recombinant fusion proteins to human CD40 and CD47 was also tested by dual-binding ELISA assay. Briefly, 100 μl/well human CD40-Fc proteins (Cat #: CD0-H5253, ACRO Biosystems) were coated on 96-well plates at 0.2 μg/mL in PBS and incubated overnight at 2-8° C. The next day, the plates were washed 3 times using wash buffer (PBS+0.05% v/v Tween-20, PBST), and then blocked with block buffer (PBS+1% w/v BSA) for 3 hours at 37° C. The plates were then washed 3 times using the wash buffer.
Serially diluted recombinant fusion proteins of the disclosure or controls (starting at 100 nM with a 6-fold serial dilution) in block buffer were added to the CD40-Fc bound plates, 100 μL per well, and incubated at 37° C. for 1 hour. The plates were washed 3 times using wash buffer, and then added and incubated for 1 hour at 37° C. with 100 μl/well 3 μg/mL human CD47-his protein (Cat #: CD7-H5227, ACRO Biosystems). The plates were washed again using wash buffer, added with 100 μl/well Anti-His tag Antibody (HRP) (1:2000 dilution in block buffer, Cat #: 105327-MM02T-H, Sino Biological) and incubated for 1 hour at 37° C. The plates were washed again using wash buffer. […] The absorbance was read using a microplate reader set to 450 nm, then the OD (450) values were plotted against the recombinant fusion protein or controls concentration. Data was analyzed using Graphpad Prism and EC₅₀ values were reported.

[2] = target: T2, biotin-labeled human CD47-Fc (Biosion in house made) (human, biotin-labeled (sites not given)); assay: competitive ELISA: binder premixed with biotin-labeled human CD47-Fc, blocked partner coated human CD172a-Fc, OD(450-630)
T2 construct: also called Human CD47-Fc protein
Procedure: The ability of the recombinant fusion proteins of the disclosure to block CD47-CD172a binding was measured in a competitive ELISA assay. Briefly, 100 μl/well human CD172a-Fc proteins (prepared in-house with amino acid sequence of SEQ ID NO: 24) were coated on 96-well micro plates at 2 μg/mL in coating buffer (carbonate/bicarbonate buffer) and incubated overnight at 4° C. The next day, the plates were washed once with wash buffer (PBS+0.05% v/v Tween-20, PBST), and then blocked with 5% w/v non-fatty milk in PBST for 2 hours at 37° C. The plates were then washed 4 times using wash buffer.
Serially diluted recombinant fusion proteins of the disclosure or controls (starting at 100 nM with a 5-fold serial dilution) were mixed with 20 ng/ml biotin-labeled human CD47-Fc (Biosion in house made, SEQ ID NO: 23) in PBST with 2.5% w/v non-fatty milk. The mixtures were incubated at 37° C. for 40 minutes, and respectively added to the CD172a-Fc bound plates, 100 μl per well. The plates were incubated at 37° C. for 40 minutes, washed 4 times using wash buffer, added with 100 μl/well streptavidin conjugated HRP (1:10000 dilution in PBST buffer, Cat #: 016-030-084, Jackson ImmunoResearch), incubated for 40 minutes at 37° C., and washed again using wash buffer. […] The plates were read on a microplate reader using the dual wavelength mode with 450 nm for TMB and 630 nm as the reference wavelength, and the OD (450-630) values were plotted against the recombinant fusion protein or controls concentration. Data was analyzed using Graphpad Prism and IC₅₀ values were reported. Wild-type SIRPαV2D1-Fc (IgG2) (SEQ ID NO: 21, X1=V, X2=K, X3=S, X4=K, X5=F) was used as a positive control.

[3] = target: T1, cynomolgus CD40-his protein (Biosion in …); assay: SPR (Biacore T200), sample on Protein A chip, antigen-his analyte, 1:1 fit
Source text: (§1) The purified recombinant fusion proteins were characterized for their binding affinity and binding kinetics by Biacore T200 system (GE healthcare, Pittsburgh, PA, USA). The anti-CD40 antibody HuCD40-C1H1-V2 (having the heavy chain and the light chain of SEQ ID NOs: 19 and 20), Selicrelumab (an agonistic anti-CD40 antibody, Roche Inc., prepared in-house with heavy and light chains of SEQ ID NOs: 27 and 28), and SIRPα-Fc fusion proteins, including SIRPαV2D1M1-Fc (IgG2) (SEQ ID NO: 21, X1=I, X2=R, X3=T, X4=K, X5=F), SIRPαV2D1M2-Fc (IgG2) (SEQ ID NO: 21, X1=I, X2=R, X3=T, X4=R, X5=V), SIRPα-isoform2-Fc (SEQ ID NO: 25) were used as positive controls.
(§2) A Protein A chip (Cat #: 29-1275-56, GE healthcare) was used for affinity determination. The recombinant fusion proteins of the disclosure and the positive controls each at the concentration of 2 μg/ml were respectively flowed onto the chip at a flow rate of 10 μl/min. Then, serially diluted recombinant human CD40-his proteins (Cat #: CD0-H5228, Acro biosystems), human CD47-his proteins (Cat #: CD7-H5227, Acro biosystems), cynomolgus CD40-his proteins (Biosion in house made, SEQ ID NO: 29) or cynomolgus CD47-his proteins (Cat #: CD7-C52H1, Acro biosystems), 2-fold dilution in HBS-EP⁺ buffer (provided by Biacore) with a starting concentration of 200 nM, were flowed onto the chip at a flow rate of 30 μl/min. The association kinetics was followed for 2 minutes and the dissociation kinetics was followed for 10 minutes. The association and dissociation curves were fit to a 1:1 Langmuir binding model using the Biacore evaluation software.

[4] = target: T3, cynomolgus CD47-his protein (Cat #: CD7-C52H1, Acro biosystems) (cynomolgus, UniProt A0A2K5X523 19-139); assay: as above
T3 construct: Bought protein; also called Cyno CD47-his
Source text: as §1, §2

[5] = target: T4, recombinant human CD40-his protein (Cat #: CD0-H5228, Acro biosystems) (human, UniProt P25942 21-193); assay: as above
T4 construct: Bought protein
Source text: as §1, §2

[6] = target: T5, human CD47-his protein (Cat #: CD7-H5227, Acro biosystems) (human, UniProt Q08722 19-139); assay: as above
T5 construct: Bought protein
T5 sequence (Q08722 19-139 limits assumed): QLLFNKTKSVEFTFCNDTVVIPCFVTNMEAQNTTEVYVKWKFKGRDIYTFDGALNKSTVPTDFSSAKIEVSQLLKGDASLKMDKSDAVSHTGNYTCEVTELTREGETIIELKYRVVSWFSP
Source text: as §1, §2

Row | EC50 [1] [nM] | IC50 [2] [nM] | Kd [3] [nM] | koff [3] [s⁻¹] | kon [3] [M⁻¹ s⁻¹] | Kd [4] [nM] | koff [4] [s⁻¹] | kon [4] [M⁻¹ s⁻¹] | Kd [5] [nM] | koff [5] [s⁻¹] | kon [5] [M⁻¹ s⁻¹] | Kd [6] [nM] | koff [6] [s⁻¹] | kon [6] [M⁻¹ s⁻¹] | Binder
1 | 0.213 | 2.74 | 2.16 | 0.00163 | 753000 | 6.08 | 0.000576 | 94800 | 0.937 | 0.00164 | 1.75e+06 | 0.987 | 0.000586 | 594000 | BSI038×S-004 (bispecific antibody, human IgG2, kappa, SIRPαV2D1 variant M1 linked to N-terminus of each heavy chain of HuCD40-C1H1-V2 (human IgG2)) heavy: EEELQVIQPDKSVSVAAGESAILHCTITSLIPVGPIQWFRGAGPARELIYNQREGHFPRVTTVSETTKRENMDFSISISNITPADAGTYYCVKFRKGSPDTEFKSGAGTELSVRAKPSAPVVSGPAARATPGGGGSGGGGSEVQLVESGGGLVKPGGSLRLSCAASGFTFSNYGISWVRQAPGKGLEWVSSISSGGDNTYYPDNVKGRFTISRDNAKNSLYLQMNSLRAEDTAVYYCARAGEKAMDYWGQGTLVTVSSASTKGPSVFPLAPCSRSTSESTAALGCLVKDYFPEPVTVSWNSGALTSGVHTFPAVLQSSGLYSLSSVVTVPSSNFGTQTYTCNVDHKPSNTKVDKTVERKCCVECPPCPAPPVAGPSVFLFPPKPKDTLMISRTPEVTCVVVDVSHEDPEVQFNWYVDGVEVHNAKTKPREEQFNSTFRVVSVLTVVHQDWLNGKEYKCKVSNKGLPAPIEKTISKTKGQPREPQVYTLPPSREEMTKNQVSLTCLVKGFYPSDIAVEWESNGQPENNYKTTPPMLDSDGSFFLYSKLTVDKSRWQQGNVFSCSVMHEALHNHYTQKSLSLSPGK light: EIVLTQSPATLSLSPGERATLSCRASQTINNNLHWYQQKPGQAPRLLIKYASQSISGIPARFSGSGSGTDFTLTISSLEPEDFAVYFCQQFSSWPLTFGGGTKVEIKRTVAAPSVFIFPPSDEQLKSGTASVVCLLNNFYPREAKVQWKVDNALQSGNSQESVTEQDSKDSTYSLSSTLTLSKADYEKHKVYACEVTHQGLSSPVTKSFNRGEC
2 | 0.197 | 2.5 | 2.2 | 0.00167 | 759000 | 5.39 | 0.000495 | 91800 | 0.935 | 0.00165 | 1.77e+06 | 1.15 | 0.000598 | 518000 | BSI038×S-005 (bispecific antibody, human IgG2, kappa, SIRPαV2D1 variant M2 linked to N-terminus of each heavy chain of HuCD40-C1H1-V2 (human IgG2)) heavy: EEELQVIQPDKSVSVAAGESAILHCTITSLIPVGPIQWFRGAGPARELIYNQREGHFPRVTTVSETTRRENMDFSISISNITPADAGTYYCVKFRKGSPDTEVKSGAGTELSVRAKPSAPVVSGPAARATPGGGGSGGGGSEVQLVESGGGLVKPGGSLRLSCAASGFTFSNYGISWVRQAPGKGLEWVSSISSGGDNTYYPDNVKGRFTISRDNAKNSLYLQMNSLRAEDTAVYYCARAGEKAMDYWGQGTLVTVSSASTKGPSVFPLAPCSRSTSESTAALGCLVKDYFPEPVTVSWNSGALTSGVHTFPAVLQSSGLYSLSSVVTVPSSNFGTQTYTCNVDHKPSNTKVDKTVERKCCVECPPCPAPPVAGPSVFLFPPKPKDTLMISRTPEVTCVVVDVSHEDPEVQFNWYVDGVEVHNAKTKPREEQFNSTFRVVSVLTVVHQDWLNGKEYKCKVSNKGLPAPIEKTISKTKGQPREPQVYTLPPSREEMTKNQVSLTCLVKGFYPSDIAVEWESNGQPENNYKTTPPMLDSDGSFFLYSKLTVDKSRWQQGNVFSCSVMHEALHNHYTQKSLSLSPGK light: EIVLTQSPATLSLSPGERATLSCRASQTINNNLHWYQQKPGQAPRLLIKYASQSISGIPARFSGSGSGTDFTLTISSLEPEDFAVYFCQQFSSWPLTFGGGTKVEIKRTVAAPSVFIFPPSDEQLKSGTASVVCLLNNFYPREAKVQWKVDNALQSGNSQESVTEQDSKDSTYSLSSTLTLSKADYEKHKVYACEVTHQGLSSPVTKSFNRGEC
